Assay [1] addresses Tau (endogenous, rat primary hippocampal neurons) (rat (endogenous in primary hippocampal neurons)) (UniProt P19332). Kind of assay: proximity ligation; PLA in fixed rat primary hippocampal neuronal cultures (DIV7, 14, 21; lentiviral shBIN1 or overexpression at DIV8, read at DIV14; compound screen incl. Cyclosporin A and U0126 at DIV21); primary antibodies BIN1-99D (mouse) and Tau (rabbit); PLA volume or PLA:Tau ratio.

Assay [2] deals with BIN1 (endogenous, primary neurons) (UniProt O08839). Kind of assay: proximity ligation assay, high-content screen. Conditions: reference: DMSO-treated neurons; sites T231.
Assay [3] addresses Tau (endogenous, primary neurons) (UniProt P19332). Kind of assay: proximity ligation assay, high-content screen. The following applies: reference: DMSO-treated neurons; sites T348.

Sequence of Tau (endogenous, rat primary hippocampal neurons) (rat (endogenous in primary hippocampal neurons)) (P19332 other isoform, or with tags, fused parts or gaps): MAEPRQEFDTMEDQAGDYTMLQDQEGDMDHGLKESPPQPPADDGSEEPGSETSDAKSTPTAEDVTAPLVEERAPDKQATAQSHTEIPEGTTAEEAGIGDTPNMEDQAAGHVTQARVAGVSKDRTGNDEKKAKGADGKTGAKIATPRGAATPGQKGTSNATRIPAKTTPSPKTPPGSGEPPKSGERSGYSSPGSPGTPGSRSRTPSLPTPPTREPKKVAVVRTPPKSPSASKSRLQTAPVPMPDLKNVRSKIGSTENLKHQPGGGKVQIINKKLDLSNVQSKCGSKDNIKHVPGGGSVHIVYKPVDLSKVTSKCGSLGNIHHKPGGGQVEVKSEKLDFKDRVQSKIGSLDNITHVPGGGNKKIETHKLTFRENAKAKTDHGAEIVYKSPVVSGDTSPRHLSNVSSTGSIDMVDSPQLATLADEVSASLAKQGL
Sequence of BIN1iso1 phosphomimetic T348E, overexpressed in primary neurons (O08539 whole entry, stated change not applied): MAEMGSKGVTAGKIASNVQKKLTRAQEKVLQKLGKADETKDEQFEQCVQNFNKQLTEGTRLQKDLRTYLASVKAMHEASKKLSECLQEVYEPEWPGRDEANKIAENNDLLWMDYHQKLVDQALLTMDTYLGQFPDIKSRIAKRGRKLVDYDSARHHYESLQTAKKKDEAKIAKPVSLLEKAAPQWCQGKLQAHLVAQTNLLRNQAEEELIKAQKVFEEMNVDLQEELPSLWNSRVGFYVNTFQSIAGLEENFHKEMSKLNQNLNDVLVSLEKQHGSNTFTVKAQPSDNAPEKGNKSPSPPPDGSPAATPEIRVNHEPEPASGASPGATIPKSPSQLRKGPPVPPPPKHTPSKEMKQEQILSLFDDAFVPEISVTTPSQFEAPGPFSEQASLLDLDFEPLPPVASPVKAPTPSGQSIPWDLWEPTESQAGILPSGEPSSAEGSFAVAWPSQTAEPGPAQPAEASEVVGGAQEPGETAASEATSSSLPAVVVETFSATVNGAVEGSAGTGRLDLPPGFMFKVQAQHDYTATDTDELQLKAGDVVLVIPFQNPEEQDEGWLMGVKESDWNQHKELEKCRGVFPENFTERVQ

For the substance “BIN1iso1 phosphomimetic T348E, overexpressed in primary neurons (from UniProt O08539-1 1-588) (natural protein)”, the fold PLA volume against BIN1iso1 (after normalization with BIN1 immunofluorescence) in assay [1] was 2.1 fold.
With “Tau (endogenous, primary neurons) (from UniProt P19332) U0126-treated neurons (MEK inhibitor)”, the other: percent decrease of PLA:Tau ratio in assay [2] turned out to be 36.2%.
Regarding “BIN1 (endogenous, primary neurons) (from UniProt O08839) Cyclosporin A-treated neurons (calcineurin inhibitor)”, the other: percent increase of PLA:Tau ratio in assay [3] came out at 42.6%.

(Values after publication PMC6778065.)
